B1: 370_G11 (antibody, V domains shown)
VH: EVQLLESGGGLVQPGGSLRLSCAASGFTFSSYSMNWVRQAPGKGLEWVASINYNSGYTSYADSVKGRFTISRDNSKNTLYLQMNSLRAEDTAVYYCARSANWHDTHLDYWGQGTLVTVSS
VL: DIQMTQSPSSLSASVGDRVTITCRASQSIVSYLNWYQQKPGKAPKLVIYAATSRASGVPSRFSGSGSGTDFTLTISSLQPEDFATYYCQQSYSLPLTFGGGTKVEIK
B2: 370_H09 (antibody, V domains shown)
VH: B1 VH with S33G, S50N, S55G, H106A
VL: B1 VL with L33V, V47L, S93D, L94N
B3: 372_F09 (antibody, V domains shown)
VH: B1 VH with S30D, S50N, T58K, S59G, H106A
VL: B1 VL with V30L, S31T, R54L, L94S
B4: 372_F06 (antibody, V domains shown)
VH: B1 VH with S31D, S33G, S50G, S55G, T58K, H106A
VL: B1 VL with V30L, L33V, V47L, R54L, S93E, L94T
B5: 372_C07 (antibody, V domains shown)
VH: B1 VH with S31D, A49S, S50N
VL: B1 VL with V30L, A55H, Y92D, S93N, L94T
B6: 371_A08 (antibody, V domains shown)
VH: B1 VH with S33G, N35H, A49S, S55G, H106A
VL: B1 VL with V30L, S93E
B7: 372_A04 (antibody, V domains shown)
VH: B1 VH with S30D, A49S, S50G, H106A
VL: B1 VL with V30L, S31T, S93E, L94T
B8: 373_A10 (antibody, V domains shown)
VH: B1 VH with S33G, A49S, S50G, H106A
VL: B1 VL with V30L, S93D
B9: 373_A08 (antibody, V domains shown)
VH: B1 VH with S30D, S33G, A49S, S50N, S55G, S59G, H106A
VL: B1 VL with L33V, V47L, R54L
B10: 371_D06 (antibody, V domains shown)
VH: B1 VH with S30D, S31D, S50G, S55G, H106A
VL: B1 VL with V30I, L33V, V47L, L94T
B11: 371_F06 (antibody, V domains shown)
VH: B1 VH with S30D, S50N, S55G, H106A
VL: B1 VL with A55H, S93N, L94S
B12: 371_C03 (antibody, V domains shown)
VH: B1 VH with A49S, S50N, S55G, T58K, S59G, H106A
VL: B1 VL with V30L, A51T, L94T
B13: 371_A07 (antibody, V domains shown)
VH: B1 VH with S31D, A49S, S50N, S55G, T58K, H106A
VL: B1 VL with V30L, A51T, S93D
B14: 371_D09 (antibody, V domains shown)
VH: B1 VH with A49S, S50N, S59G, H106A
VL: B1 VL with V30L, S31T, S93N, L94N
B15: 371_F04 (antibody, V domains shown)
VH: B1 VH with S30D, S50G, T58K, S59G, H106A
VL: B1 VL with V30L, V47L, A55H, S93N, L94N
B16: 371_A06 (antibody, V domains shown)
VH: B1 VH with S33G, S50G, S55G, H106A
VL: B1 VL with V30L, S31T, A55H, S93D, L94S
B17: 371_G10 (antibody, V domains shown)
VH: B1 VH with A49S, S50G, S55G, T58K, H106A
VL: B1 VL with V30S, L33V, V47L, A55H, Y92D, S93D, L94S
B18: 372_F08 (antibody, V domains shown)
VH: B1 VH with S31D, A49S, S50N, S59G, H106A
VL: B1 VL with V30L, S31T, L33V, S93D, L94T
B19: 371_F08 (antibody, V domains shown)
VH: B1 VH with S30D, S31D, A49S, S50G, S55G, S59G, H106A
VL: B1 VL with L33V, A55H, S93E, L94S
B20: 371_A03 (antibody, V domains shown)
VH: B1 VH with S31D, S33G, S50N, S55G, S59G, H106A
VL: B1 VL with V30L, A51T, S93E, L94S
B21: 371_H09 (antibody, V domains shown)
VH: B1 VH with S30D, A49S, S50N, S55G, H106A
VL: B1 VL with V30L, S31T, L33V, R54L, S93D, L94S
B22: 372_F03 (antibody, V domains shown)
VH: B1 VH with S33G, S50G, S55G, H106A
VL: B1 VL with V30L, S93D, L94T
B23: 373_A02 (antibody, V domains shown)
VH: B1 VH with S30D, S33G, A49S, S50G, S55G, T58K, S59G, H106A
VL: B1 VL with V30L, L33V, A51T, R54L, S93N, L94T
B24: 372_B04 (antibody, V domains shown)
VH: B1 VH with S30D, S33G, S50N, S55G, H106A
VL: B1 VL with V30L, L33V, R54L, S93D, L94S
B25: 370_H01 (antibody, V domains shown)
VH: B1 VH with A49S, S50G, T58K, S59G, H106A
VL: B1 VL with V30I, V47L, A51V, S93D, L94T
B26: 372_D02 (antibody, V domains shown)
VH: B1 VH with S33G, N35H, S50G, S55G, S59G, H106A
VL: B1 VL with V30L, S31T, S93D, L94N
B27: 371_F01 (antibody, V domains shown)
VH: B1 VH with S50G, S55G, S59G, H106A
VL: B1 VL with V30L, S31T, L33V, R54L, S93N, L94N
B28: 371_B07 (antibody, V domains shown)
VH: B1 VH with S30D, S50G, S55G, H106A
VL: B1 VL with V30L, S31T, L33V, V47L, S93E
B29: 371_A12 (antibody, V domains shown)
VH: B1 VH with S30D, S50G, H106A
VL: B1 VL with V30L, L33V, R54L, S93D, L94T
B30: 371_G05 (antibody, V domains shown)
VH: B1 VH with S30D, A49S, S50G, S59G, H106A
VL: B1 VL with V30S, V47L, A51V, L94S
B31: 371_B06 (antibody, V domains shown)
VH: B1 VH with S30D, S50G, S55G, T58K, H106A
VL: B1 VL with V30L, S31T, L33V, A55H, S93N

Substitutions are numbered along the chain they refer to.
Also: test concentration or dose not given here.

For one assay, the target named is T1, Human ACVR2A (human, UniProt P27037 20-135, limits assumed).
T1 construct: also called activin receptor, type II A
T1 sequence (P27037 20-135 limits assumed): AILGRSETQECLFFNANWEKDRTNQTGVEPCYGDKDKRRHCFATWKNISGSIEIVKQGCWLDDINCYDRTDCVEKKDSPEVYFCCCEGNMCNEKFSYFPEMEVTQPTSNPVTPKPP
The assay can be described thus: ELISA. An outline of the steps:
(§1)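 mAb binding by ELISA; antigens: hu ACVR2A, mu ACVR2A; pos ctrl biotinylated goat anti-hu kappa LC; neg ctrl hu Fc.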
For orientation: In an ELISA, binding on a coated surface is turned into a signal by an enzyme label.
B1 had an optical density of 2.98 OD.

B2 displayed an optical density of 2.95 OD.

B3 displayed an optical density of 3.17 OD.

Molecule B4 displayed an optical density of 2.26 OD.

In the case of B5, the optical density was 2.41 OD.

In the case of B6, the optical density came out at 1.06 OD.

In turn, B7 registered an optical density of 3.2 OD.

In the case of B8, the optical density is 3.54 OD.

As for B9, the optical density is 3.3 OD.

Molecule B10 yielded an optical density of 1.48 OD.

B11: the optical density came to 2.41 OD.

On to B12, for which the optical density worked out at 3.01 OD.

The molecule B13 yielded an optical density of 2.88 OD.

For B14, the optical density came to 2.89 OD.

The molecule B15 showed an optical density of 2.95 OD.

Regarding B16, the optical density is 2.65 OD.

In the case of B17, the optical density is 1.65 OD.

On to B18, for which the optical density turned out to be 3.38 OD.

As for B19, the optical density was determined as 2.2 OD.

On to B20, for which the optical density amounted to 2.84 OD.

B21 displayed an optical density of 2.96 OD.

Molecule B22 had an optical density of 3.19 OD.

B23 gave an optical density of 2.8 OD.

Molecule B24 had an optical density of 2.61 OD.

Take B25: the optical density was determined as 3.31 OD.

The molecule B26 had an optical density of 2.66 OD.

B27 yielded an optical density of 2.41 OD.

For the molecule B28, the optical density came out at 2.78 OD.

B29: the optical density is 3.17 OD.

B30: the optical density was found to be 1.25 OD.

Molecule B31 returned an optical density of 2.69 OD.

A further assay deals with Mouse ACVR2A (mouse, UniProt P27038 20-135, limits assumed). The assay can be described thus: ELISA. Put shortly: as §1
Sequence of Mouse ACVR2A (P27038 20-135 limits assumed): as the sequence (P27037 20-135 limits assumed) above, with K20R, V73I counted along it
On to B1, for which the optical density was 3.07 OD.

Regarding B2, the optical density amounted to 3.28 OD.

For the molecule B3, the optical density was found to be 3.04 OD.

B4: the optical density was determined as 2.54 OD.

In turn, B5 yielded an optical density of 2.64 OD.

B6 had an optical density of 1.16 OD.

Take B7: the optical density came out at 3.4 OD.

Take B8: the optical density amounted to 3.55 OD.

Regarding B9, the optical density is 3.31 OD.

Regarding B10, the optical density came to 1.55 OD.

On to B11, for which the optical density is 2.79 OD.

With B12, the optical density was determined as 3.24 OD.

As for B13, the optical density worked out at 3.06 OD.

In turn, B14 yielded an optical density of 2.94 OD.

In turn, B15 had an optical density of 3.1 OD.

As to B16, the optical density worked out at 2.79 OD.

In the case of B17, the optical density amounted to 1.92 OD.

In turn, B18 gave an optical density of 3.22 OD.

B19 gave an optical density of 2.55 OD.

B20 yielded an optical density of 2.62 OD.

With B21, the optical density turned out to be 3.23 OD.

On to B22, for which the optical density stood at 3.31 OD.

The molecule B23 registered an optical density of 2.97 OD.

In the case of B24, the optical density is 3.12 OD.

Regarding B25, the optical density stood at 3.18 OD.

B26 returned an optical density of 2.91 OD.

Molecule B27 had an optical density of 2.62 OD.

B28: the optical density was 3.04 OD.

For the molecule B29, the optical density was determined as 3.3 OD.

Regarding B30, the optical density amounted to 1.33 OD.

Molecule B31 showed an optical density of 2.71 OD.

For another assay, the target named is T2, Goat anti-Human Kappa.
T2 construct: Positive control of the ELISA; also called biotinylated goat anti-human kappa light chain
The assay can be described thus: ELISA, positive control. An outline of the steps:
as §1
B1 came in with an optical density of 3.72 OD.

With B2, the optical density stood at 3.54 OD.

The molecule B3 registered an optical density of 3.47 OD.

As to B4, the optical density was 3.48 OD.

The molecule B5 registered an optical density of 3.46 OD.

Consider B6, for which the optical density was determined as 2.44 OD.

For the molecule B7, the optical density turned out to be 3.64 OD.

As for B8, the optical density stood at 3.1 OD.

Consider B9, for which the optical density is 3.11 OD.

B10 gave an optical density of 3.32 OD.

The molecule B11 had an optical density of 3.46 OD.

In the case of B12, the optical density is 3.6 OD.

With B13, the optical density was found to be 3.65 OD.

Consider B14, for which the optical density came out at 2.17 OD.

The molecule B15 showed an optical density of 3.66 OD.

B16 displayed an optical density of 3.51 OD.

For B17, the optical density stood at 3.41 OD.

Consider B18, for which the optical density worked out at 3.44 OD.

The molecule B19 returned an optical density of 3.43 OD.

On to B20, for which the optical density stood at 3.56 OD.

B21: the optical density was determined as 3.66 OD.

For the molecule B22, the optical density came to 3.6 OD.

B23 displayed an optical density of 2.96 OD.

As for B24, the optical density was 3.59 OD.

With B25, the optical density turned out to be 3.65 OD.

With B26, the optical density is 3.58 OD.

B27 came in with an optical density of 3.68 OD.

For the molecule B28, the optical density was determined as 3.33 OD.

B29: the optical density is 3.63 OD.

Molecule B30 came in with an optical density of 3.08 OD.

Consider B31, for which the optical density came to 3.3 OD.

Source of the values: US20210380703A1 (RIGEL PHARMACEUTICALS, published 2021).
